Laboratory results published in patent US20220110851A1 (SKINMED, published 2022).
No end group written: not given here.

The binders below were run against acetylcholine receptor on AchR-overexpressed TE671 cells (assay: cell-based or functional assay).
WTWKGNKQVKF [Spep-10] was tested, and the “AchR inhibitory effect, Fura-2 fluorescence in TE671 cells after 1 µM acetylcholine” value was 47%.
For WTWKGRKSLLR [Spep-2], the “AchR inhibition, TE671 cells, 400 µM nicotine” value (“AchR inhibition, TE671 cells” for short) was 100%, the “AchR inhibitory rate, TE671 cells, 400 µM nicotine, 20 µM peptide” value (“AchR inhibitory rate, TE671 cells” for short) was about 10% and the “IC50 value for AchR (AchR inhibitory effect in TE671 cells)” value was 750 nM.
RYAKHRKRQTR [L2-110] was tested, and the “AchR inhibition, TE671 cells” value was 100%, the “AchR inhibitory rate, TE671 cells” value was about 100% and the “inhibitory ability on nicotinic acetylcholine receptors, in multiples compared with Spep-2” value (shortened to “inhibitory ability … compared with Spep-2”) was 8 times.
In the case of SNVKRKRGRCKPYR [L3-37], the “AchR inhibitory rate, TE671 cells” value is reported as about 100% and the “inhibitory ability … compared with Spep-2” value is reported as 32 times.
With WTWKGRKSLLR (also: palmitoyl conjugated, site not given here) [Palmitoyl-Spep-2] the “IC50 value for AchR (AchR inhibitory effect in TE671 cells)” value was 75 nM.
With RFRRGVRR [L1-13] the “AchR inhibitory rate, TE671 cells” value was about 100%.
With PNGKVRKRIRRRYF [L3-28] the “AchR inhibition, TE671 cells” value was 100%, the “AchR inhibitory rate, TE671 cells” value was about 100% and the “inhibitory ability … compared with Spep-2” value was 16 times.
With WTWKGRDKLQM [Spep-4] the “AchR inhibitory effect, Fura-2 fluorescence in TE671 cells after 1 µM acetylcholine” value was 17%.
In the case of RARKKRKSLLRRQV [L3-27], the “AchR inhibition, TE671 cells” value is reported as 100%, the “AchR inhibitory rate, TE671 cells” value is reported as about 100% and the “inhibitory ability … compared with Spep-2” value is reported as 8 times.
